Measurements taken from the domain aggregation screens of Martell et al. (2025).

Test: soluble fraction after stress (log2 fold change); higher = more stays soluble; pooled small domains, quantitative proteomics
Settings: stress: pH 4
Summary of the method: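 Small protein domains from pooled custom libraries were exposed to pH 4, then quantified with high-throughput quantitative proteomics. The fold change in how much of each domain remains soluble is read as aggregation propensity. It is given as log2, with higher values meaning more stayed soluble.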
In the case of “HMATTIEAPMPGKILDVKVNPGQAVSYGQVVLTMEAMKMETEIVAPADGTVASVLVKSGDMVETGAALVSL”, the “soluble fraction (log2)” value is reported as -0.268. In the case of “HMDNPPDRAEIEQMLKDAGLTPEADAMAALSDLARTLDPGDFRQTLEKITLYKLGDSTPIGLDDIAAGAP”, the “soluble fraction (log2)” value is reported as -1.18. For “HMSLSPAATRSRGYPSVLLTMKAPERLVSAAGPDRRAYLVGTDPLVIELPGVKGLYKVDPDQIVFE”, the “soluble fraction (log2)” value was -0.0637. For “HMHAEEIAREAKEALERGEEFHFAGITVRSEEALEFLEEWLRKFF”, the “soluble fraction (log2)” value was -1.23. In the case of “HMALPEHIEPFLRGLGQALAEGDSYEDVQERLLRAYPYLDSTEFQTALARVIFISDLWGRLN”, the “soluble fraction (log2)” value is reported as -1.02. With “HMEPIAFDNMHNRGIKGTNDWTQYEITLPFSAEAKKIFVAGLLVGKGKAWFDKFEVFLDGKNITDVAQI” the “soluble fraction (log2)” value was -0.0075. In the case of “HMPEITPAMIKALLSSLSEELAFASVTKVYAVLHNLFKAALLDDTIDRNPMDKVPRPRKSKDAAL”, the “soluble fraction (log2)” value is reported as -0.424. With “HMDQEDAYMQVRQVFDTLLVSELSKRIFAWRFFEGKSFAEWPGAESQKFLYDTFNRILLIISAKIRRKNA” the “soluble fraction (log2)” value was -0.522. For “HMTTGEIIQRERTRLGLSQEKLAEQVGVSRQAVSKWELGDAVPDTDKLVPLARTLGISVDTLLD”, the “soluble fraction (log2)” value was 0.0499. With “HMDTLESYVKRLEKLEGIADSFKGVSKAFALQAGREIRIMVESEKITDEEAVWLSKDIARRIENELEYPG” the “soluble fraction (log2)” value was -0.468. With “HMFWRKIDFYGLNLSTYRNIINIGSDYNYIYLDLGNIYKILNPITGKIIEEQDLVMNIDNINWSS” the “soluble fraction (log2)” value was -0.105. In the case of “HMERLKYSQVVDLFKGEQVKSFVLDESNQLKMELQDGSTVSYKLRSFEQFYLDLSDTVKEQKESGIITDYD”, the “soluble fraction (log2)” value is reported as -1.72. With “HMDTETLIDKYQLNASEAAVLRFMDKNRDSLRDLGIRDVARASYVSTATIVNMAKKIGYSGYSELVFAYGS” the “soluble fraction (log2)” value was -0.545. For “HMNFEIEVTENGKRIDSYLAEELDLSRSKVQKLIKQELVTVNGKVVSNNYNVKLGDTILVNDD”, the “soluble fraction (log2)” value was 0.154. With “HMTGSALDATIEKLLDLGSKAGSVTEDEIQIVLKNVDVTDAQLSSIYQFLRDRGVEIVSATEDDD” the “soluble fraction (log2)” value was -1.38. With “HMAAENAVGARVKALREAMDLSLRDLSERSGVSPTMLSQVERGSTSPTLAVAEKIAAGLDLSLSQLLRL” the “soluble fraction (log2)” value was 0.124. For “HMQTLGADLRALRKARGLTLTDMAETLGRSVGWLSQVERDLSEPSITDLRHMARTLGVSVSMLFS”, the “soluble fraction (log2)” value was -0.553. With “HMSPILTPDQATKAYGKDGVLYIHSNKERTIYIYDVTGRTVRILEAVEGENQINGLEKGIYFLEGQKVAV” the “soluble fraction (log2)” value was -0.378. For “HMVSVGDIFAGRIISNENGHLLLQLLDGSKISAQTVTDLKYNIGDVLNLEIIEEKQGLIFVRQT”, the “soluble fraction (log2)” value was -0.471. For “HMGDTPVDFSEFIRWVDTGVVDRVELTGNEIVGTSSSGERFSTYAPPQYEGLGNKLIERDIVVVATAA”, the “soluble fraction (log2)” value was -1.21. With “HMTVKEVGYDTFLTMLDKKEIKQVQVEDNQIIFSDNADPVNYYKTGVFNDPDLVNRLQDAGVEFG” the “soluble fraction (log2)” value was -0.37. In the case of “HMNTEEKILEKEFLMLYSELGLQPKNIYELMENTGLKYEKLVEMLLQLQLKGLVEQPSYNYYSRL”, the “soluble fraction (log2)” value is reported as -2.46. For “HMQEPNYQPLMQNIKSQDLEEVTRLLSLNDVKFKIDHRTGLLLVESSRVYEAKMKLAATGITD”, the “soluble fraction (log2)” value was -1.15. For “HMSIEIKTIDVKHADLFQLQDILRNLYPELNIVPDQRNNKLILQGKRELLVEAERLTLQLDTE”, the “soluble fraction (log2)” value was -1.29. With “HMTTSNPMNVTSAEAAFDNGTDRLNAFISGRTTSEERSTYFPLFVRETKEDFLRAVGRFNEYIANHG” the “soluble fraction (log2)” value was 0.0839. With “HMKEETYHYTVRYVTDGGDILASYEGKATKDSVFFPEVKTFDGYTAVRGEEPMFHLVSDHAVFQIVYQKNG” the “soluble fraction (log2)” value was 0.204. In the case of “HMAQLPADLSKVKSSQISDQQLTQIAQQAKNSGQSEQAVLQELKQRGLPDTEIQALGARISGLMQ”, the “soluble fraction (log2)” value is reported as 0.404. In the case of “HMENSPLTHREAEVMRLMSEGKSNRAISEHLVISEKTVKNHVSSILQKMSVDDRTQAVLQAIKNGWVD”, the “soluble fraction (log2)” value is reported as 0.142. For “HMPKELAPYDILARYYLTVNNSKQSIALLEQYLDKAGSAPAALKAKLLLAGILYPSGNKERAEKLVEEVIK”, the “soluble fraction (log2)” value was -0.136. For “HMTDIDATSIERAVAKRRHFFLSNIQDLTMKMARRLIEKDLGLAPKHLDAAPFKTRITELVDAVIALGD”, the “soluble fraction (log2)” value was -0.484. In the case of “HMKTKILAPIPGSIMVVDVKVGDTVKVGDRLVQLEAMKMENNITSEKAGKITAVLVTAGQKVLQNEVMIEL”, the “soluble fraction (log2)” value is reported as -0.52. In the case of “HMSGILINGELYKPGEQMSLKQRLSIQARIQMQGEDTVKPEMLKDFYNSGGPLSKEESSEYMKSQN”, the “soluble fraction (log2)” value is reported as -0.321. With “HMISKYLRIESDILSAIREGRLKPGDKLPGQSEMRRIYNVSAITVRKAFTDLINDGYLVGVRGSGTYVAKR” the “soluble fraction (log2)” value was 0.117. In the case of “HMANPRLEYFLSNITPDWNEFSPELKNQLLIENADPYKLEQYILQVSPDMYIEEQNAPGTVRQMAGDITG”, the “soluble fraction (log2)” value is reported as -1.54. With “HMDYRSMSGLQKAALLIMSVGEETAAKLFQLMHDDEIREISQTMANLGTVNATVIERLFVEFADAISS” the “soluble fraction (log2)” value was -0.935. In the case of “HMGFPAPFDGKAVAELRRRLGLTRRGLAEELSVSPSTVDKWEQGDVALRSPALTILKILWHQGLKALPP”, the “soluble fraction (log2)” value is reported as no less than 0.43. In the case of “HMSLSISSLVFFRKNAGLTQADIATAMSITQSAVARLEKRLLSDSDVTLKTLERYAEAVGIRMHVDFEP”, the “soluble fraction (log2)” value is reported as -0.0175. For “HMLKETGVITASVLNVREDIGTSSNIVAQLKKGMEVNILESRAIAGSETWYRIDAGSIKGWIFGDYI”, the “soluble fraction (log2)” value was -2.29. For “HMAKKDVESTLGGRLRVARVRAGLTQVELARMLGMNSVSLSNVEGGRRGLSMKQLVRVAKILEVPVAYLLG”, the “soluble fraction (log2)” value was 0.151. In the case of “HMKQDYYSILGVMRDASQEEIKRAYLDAAQRLHPDRNTSAGDTEMFLDVQQAYEVLSNPKRRAQYDATLP”, the “soluble fraction (log2)” value is reported as 0.169. With “HMRQPRGQRVTVREASSLLPFLFAHLTDRSRSAVKSLLRHGQIWVNGRVTTHFDMPLRPGDTVLISHERG” the “soluble fraction (log2)” value was -0.233. With “HMSLLTIDELSQATGVSVRTLRYYVSSGVLDKPTGETRNARYGTHHLDQVRNIKKLQEEGLTLNRILEIKK” the “soluble fraction (log2)” value was -0.405. In the case of “HMEVAVQFIEFKIPENHAWIGKEIREITFPPESILVLIIRDGKKLVPNGKTVLKEGDSLILSGKASD”, the “soluble fraction (log2)” value is reported as -1.61. With “HMETAVMPDVMKLDSTTAIQALKDKGFATIETYEVKSDRPAGVVVRQSETADSVVALSKEILLGVSNGADY” the “soluble fraction (log2)” value was -0.00473. With “HMSGRSVSYSEFMSRVEAGQVSSVTLDGERVEVTGSDGSRYVTIAPSDATLTDKLVAKGVEVRADP” the “soluble fraction (log2)” value was 0.196. With “HMTNKKIILEIFQNSDKPLIVEEISKKMFEKTGKKMILSTIYRNLKNMEDVGILKKIYNEDGSYMYIF” the “soluble fraction (log2)” value was -1.07. With “HMHPTDMKLTARLEEGAQFVRTQQLSKAIEIFTEVIKLDQNWAEAWNKRATVFYMMGKFKQSQEDIDKVLA” the “soluble fraction (log2)” value was -0.12. In the case of “HMKSYQKITPATEGNYLTTYREGDDIKTYEGVKAMYTPADFDASSVREITPEEHQSYQKAKEQALQEETEQ”, the “soluble fraction (log2)” value is reported as 0.0912. For “HMSLTMPKLIGMHLFQAERTLNYYGFQYKVEGPDSASVVIDQYPKEGVTVDPHYPITLKIGPSA”, the “soluble fraction (log2)” value was 0.206. In the case of “HMRMSLDEAKAVVLPIGEYKGRNMGEVLAIKPELIDFYASQKFNSSKYPYLKEAAQVILENQ”, the “soluble fraction (log2)” value is reported as 0.0219. With “HMKSIETVAELVAELKKLNPNAKISNIDGTYTLEEDINTITLPKDFKYDNNLGINNKIDDFTPYISLDVKA” the “soluble fraction (log2)” value was -0.132. For “HMSYDAINGYEPSDLRGSLTLEQTASMLNLPLTDVYARLGLPANYPSGATLKDGAADMGMGLSDFKHQLF”, the “soluble fraction (log2)” value was 0.0723. With “HMQISDNTILEDAVSRIIDENPKSVSDYFQGKEAVVGFFIGQIMRETKGTANPKIAREIVISHLEAI” the “soluble fraction (log2)” value was -0.819. For “HMTRQRQLIYNIIQRADDHPTAEMIYARAKAEMPSIAFGTVYRNLKLMVDAGEILHIPVAGEPDRYDK”, the “soluble fraction (log2)” value was 0.142. In the case of “HMQSAKLSYSDFMQKVNAGDVVSVKIQGPKISGVTTGGGKFMTYAPEDPTLVSTLMQKKVEVMAEP”, the “soluble fraction (log2)” value is reported as 0.173.
